Experimental findings from patent CN116265487A are described below.

The target in the experiment is 重组蛋白hVEGF-Fc (human). The experiment can be described thus: cell-based or functional assay.
重组蛋白hVEGF-Fc (human), sequence (chain, as listed by the source limits assumed): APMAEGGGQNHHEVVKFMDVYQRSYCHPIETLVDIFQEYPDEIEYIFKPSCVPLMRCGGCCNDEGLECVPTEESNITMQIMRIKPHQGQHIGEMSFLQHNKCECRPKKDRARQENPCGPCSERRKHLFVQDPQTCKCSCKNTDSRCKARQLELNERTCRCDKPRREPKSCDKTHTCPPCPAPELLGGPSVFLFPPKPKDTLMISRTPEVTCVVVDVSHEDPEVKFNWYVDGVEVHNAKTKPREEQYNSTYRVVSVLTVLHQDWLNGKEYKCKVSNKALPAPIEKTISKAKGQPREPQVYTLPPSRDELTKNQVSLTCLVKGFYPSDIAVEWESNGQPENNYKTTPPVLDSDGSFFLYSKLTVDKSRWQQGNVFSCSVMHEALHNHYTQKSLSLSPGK

The substance Faricimab (bispecific antibody) had a 中和VEGF活性IC 50 of 0.582 nM.
